Laboratory results from the supplement of paper PMC12042874.
± gives the uncertainty stated by the source.

Assay: amyloid nucleation score (Sup35N fusion, yeast selection) (log enrichment); library NNK1; higher = more nucleation; inactive = no reads after selection
Procedure, shortened: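 Output and input plasmid inserts were sequenced by Illumina after psi-negative yeast carrying Sup35N fused to peptides of 20 random codons had been induced 24 hours with 100 μM copper sulfate and grown 7 days at 30°C on medium lacking adenine and uracil. The nucleation score is the DiMSum log enrichment of output over input reads, centred on the mode score of non-aggregating sequences. Sequences with under 100 input reads were excluded.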

Row | Substance | amyloid nucleation score
1 | KYVSYQGQVDCSCKSVL | -0.182 ± 0.45
2 | KYWLMSLLAVKPSSRDSYGQ | -0.239 ± 0.28
3 | LACYDQPATSRSTAGSCPVP | 1.55 ± 0.7
4 | LAEHHWYWAEMIWSRGHEFT | 0.158 ± 0.44
5 | LAILMMCLLWTDLAKVLCPH | -0.015 ± 0.69
6 | LAPALRTETQICRRIHSVQL | 1.62 ± 0.26
7 | LAVFRCAARYYWNSFCLSRT | 0.03 ± 0.21
8 | LAWCNY | 0.765 ± 0.57
9 | LAWLFYGFEIKL | 0.241 ± 0.9
10 | LAWLQCRAGETFITWRHQFY | 0.544 ± 0.55
11 | LAWTMSQQIGETRRGAEMCT | 0.106 ± 0.33
12 | LCAFMSYLSSIFSRYNCFYV | 0.268 ± 0.19
13 | LCALG | -0.434 ± 1.2
14 | LCALVRICFPMADYEGRGGC | 2.33 ± 0.14
15 | LCCYAVYGLCLMHTYNWGCD | 0.564 ± 0.73
16 | LCDLWQHFSSSNVTGGLRRN | 0.966 ± 0.54
17 | LCITRT | -0.521 ± 0.56
18 | LCLDVLSGLCYFYLQ | 0.622 ± 0.59
19 | LCMKFSAVFWELKRV | 0.498 ± 0.52
20 | LCMNCVIQSDKRSSLLCYER | -0.636 ± 1.2
21 | LCNFDSGFGNYGLL | -0.17 ± 0.52
22 | LCNPQYM | 1.38 ± 0.69
23 | LCRMFRIVAVGYMDQRCRT | 0.479 ± 0.49
24 | LCSIKNSLMECLWYDL | -0.177 ± 0.33
25 | LDCAKTVVTGVVLGRQLCQN | 0.662 ± 0.39

Row | Substance | amyloid nucleation score
26 | LDFKDSGLYLPYKGNYGSV | 0.378 ± 0.68
27 | LDGTAYVDFVVCLEGGTDVI | -0.18 ± 0.37
28 | LDGTGWYCCQYSGGLYSLCG | -0.073 ± 0.31
29 | LDILMGGGHTEDCTLPGHLS | 0.307 ± 0.36
30 | LDLGEV | 0.025 ± 0.36
31 | LDNLWYL | 0.623 ± 0.88
32 | LDRKIK | 0.651 ± 0.39
33 | LDRMFSVVRNNVTTSVLSEK | 0.234 ± 0.32
34 | LDTDFSPCRTAVLVAIMHRG | 0.415 ± 0.74
35 | LDVFPNYASRCTWAVDASFL | -0.703 ± 2.1
36 | LDVLLLLMDCSRYPKIKGGI | -0.012 ± 0.43
37 | LDVRAIRYILK | -0.252 ± 1.4
38 | LDVTSDFCTMI | 0.5 ± 0.38
39 | LDYLTTRKANVHRGCVALML | -1.27 ± 0.78
40 | LDYPISVIVPGTDQSLEFLP | inactive
41 | LEDHVWKVVVYLSKNDVCMG | 0.269 ± 0.67
42 | LEGHNCADQLLSFLTSSYSL | 1.34 ± 0.44
43 | LEGSNSFNLRNLQFALRGTL | 0.069 ± 0.45
44 | LEHHCAHCIGEVTINIKRFP | 0.306 ± 0.41
45 | LELDRFDNFRYGSAPRCYLP | inactive
46 | LELSKTISMPVSMNRFWVIR | -1.39 ± 1.2
47 | LESFWGSPA | 0.445 ± 1.2
48 | LFAPPYLLAVMEE | 0.97 ± 0.72
49 | LFCFNRVD | inactive
50 | LFFHSKYMQRLKL | 0.183 ± 0.72

Row | Substance | amyloid nucleation score
51 | LFFRIYDHCNEHEKCVV | inactive
52 | LFFSYMQLVTNSTCTYLRVF | 1.24 ± 0.74
53 | LFFVPMARVW | 0.01 ± 0.54
54 | LFIRYALSFESMWL | 0.586 ± 0.52
55 | LFKSQFEFFEVGSVEDEFFR | inactive
56 | LFLLEINVSSRIWPSFPKSY | 0.257 ± 0.42
57 | LFMFRLKYVIHWDIG | 0.911 ± 0.54
58 | LFMGVRTKVNGSAVI | 0.183 ± 0.17
59 | LFVGWYYYSVFSFV | inactive
60 | LFVLLQHLAATFYVQVLTSR | -0.028 ± 0.89
61 | LFVNFGTLS | 0.391 ± 0.41
62 | LFVTCPHLSTQ | 1.26 ± 0.69
63 | LFWNFRRTGAGLAAGLVVGL | -0.885 ± 1.4
64 | LFYVMWWMAGVGLRRGYWAN | inactive
65 | LGASGLGCIF | 4.56 ± 0.055
66 | LGCLFNAGAFWAYGGMVSLH | -0.024 ± 0.57
67 | LGCLQLITSERGPDYYKVAT | 0.218 ± 0.41
68 | LGDVSRYFCCIQGNNYRM | 5.51 ± 0.057
69 | LGFCTLFISMEDQLCVLQIL | -0.546 ± 1.2
70 | LGIVSCTSQNPNGVDTSIFG | 0.117 ± 1.4
71 | LGKRDFSGFSAKSQLFK | -0.613 ± 0.27
72 | LGQLNFLMWYPKYECRIYMG | 6.656 ± 0.058
73 | LGSNNWVFGYGR | inactive
74 | LGWDDVVY | 0.314 ± 0.85
75 | LHHRSLFDCESNTAGSPRFV | -0.279 ± 0.47

Row | Substance | amyloid nucleation score
76 | LHIVMLVLMASMEQTVTS | -1.11 ± 2.4
77 | LHLERALLTNRLFRS | 0.077 ± 0.49
78 | LHVRVCMYADMLSFYGSFAY | 2.68 ± 0.085
79 | LICQLGEPQFNKFHWICSLD | -0.39 ± 1.7
80 | LIDRHSFVRGRIRVSSVVVC | inactive
81 | LIFLLSQSIVVMQWSGRKKQ | inactive
82 | LIFMMDEVMYNGVSCFVRRE | 0.136 ± 0.69
83 | LIGRRGLHYLF | -0.186 ± 1.9
84 | LIIVRSMSNDGSIVGSQAWP | 8.152 ± 0.073
85 | LIKYFNINYNGCSAVPWGSP | 5.981 ± 0.056
86 | LILFWF | -0.5 ± 1.4
87 | LILSSCHERGSGGVFWTDHV | 0.924 ± 0.64
88 | LINFLLVTVCTSWIGISLCV | 0.358 ± 0.39
89 | LINHIS | 0.444 ± 0.9
90 | LISACDRSPSVIPI | 0.252 ± 0.37
91 | LISPVQSNTSAMVCELSDPY | 0.56 ± 0.76
92 | LITLAFVVSCVSYSRGSKRW | 1.31 ± 0.23
93 | LITLREVTYIFNWTFLNYLR | -0.305 ± 0.43
94 | LIVNRSKFLT | 0.625 ± 0.36
95 | LIVVSLGKMKLGYYFKFNVL | 0.286 ± 0.22
96 | LIWSMEALYFMDLLGG | inactive
97 | LKASWRAGRATVREKGCKLA | 0.505 ± 0.38
98 | LKMEYHVGRNWSLGKSRAPE | 0.335 ± 0.92
99 | LKYANLSMRYPWVKKYCKEN | -0.301 ± 0.51
100 | LKYFYR | 0.44 ± 0.34

Row | Substance | amyloid nucleation score
101 | LLCYMRGYPSCL | 0.512 ± 0.36
102 | LLDSNHSVLYFIFGLVT | 1.27 ± 0.42
103 | LLDWGFPG | -1.22 ± 1.6
104 | LLFRNYHMGDLEHLFIFYWY | 0.475 ± 0.56
105 | LLGAR | 0.272 ± 0.79
106 | LLHGGY | -1.86 ± 2.4
107 | LLLLHLWLALRGLSDCSSHV | 0.626 ± 0.87
108 | LLLRSAAESRVSLDEEARGT | 0.191 ± 0.64
109 | LLMEFI | 1.46 ± 0.84
110 | LLMNQV | 0.715 ± 0.5
111 | LLQMWMEWRVFYYHLFVSAS | 0.085 ± 0.55
112 | LLQSGGLVIRVHCSMFTVGA | -0.889 ± 0.78
113 | LLRFTCSILLRA | 0.437 ± 0.79
114 | LLSFAITCDSPVSRSVLFIR | -0.53 ± 0.58
115 | LLSTHVMQVLPMNQAKNILK | -0.935 ± 0.29
116 | LLSVF | 0.484 ± 0.74
117 | LLVCSKRSGLVSLLLVIYAF | -0.522 ± 1.4
118 | LLVESKAYGWHVMRGQTWTR | -0.045 ± 0.42
119 | LLVVIQICLM | 2.9 ± 0.14
120 | LLWTSNIIYMSFAVRNKSVR | 0.59 ± 0.32
121 | LLYFRVRSMFKGLRNETYMA | 0.411 ± 0.27
122 | LMFGRKCMLSLFPVRFHRCH | 0.378 ± 0.9
123 | LMFSIFTYNFGKNWSSKSLG | 0.303 ± 0.52
124 | LMSTVIVESVVIWGMAARVQ | 2.62 ± 0.11
125 | LMVGVSRGSGWRCGPLGEGA | 0.035 ± 0.37

Row | Substance | amyloid nucleation score
126 | LMVISYRCDATGRRRVSLD | 0.867 ± 0.25
127 | LMWNLTLS | 0.949 ± 0.97
128 | LMWVSRR | 0.13 ± 0.38
129 | LMYPSGQSKRWIYRLYMGYR | inactive
130 | LNCWLNRSVYVRLNRQDGKT | 2.5 ± 0.31
131 | LNHRGGLVDGFMAAGPRKFR | -0.793 ± 1
132 | LNHSAIRHTVSGLNPWSWAG | -0.288 ± 1.5
133 | LNRSGIISITIMTWSFGNAQ | 2.75 ± 0.13
134 | LNSKILGKSRTCDENSWPFV | -0.27 ± 0.51
135 | LNSLNVGLVEDKQYILYER | 1.68 ± 0.39
136 | LNSNPDCKTLFIHAWW | 0.282 ± 1.2
137 | LNTFWKIRTNMSMGTWS | 0.79 ± 0.65
138 | LNVCSRTPWYKSQSFVDRCV | -1.69 ± 2.4
139 | LNVIVKDRGPCKSSSEIAVD | -1.35 ± 1.3
140 | LNVTQYVKGSEWKWGSTTSP | 0.176 ± 0.52
141 | LPCHWVHVQGHHWLRLDVMC | 0.2 ± 0.64
142 | LPFMHYYHSGY | -0.814 ± 1.4
143 | LPGMVSL | 0.33 ± 0.42
144 | LPLICRSSGLLV | -0.405 ± 1.6
145 | LPYNHTQTVMDFIYFVFWLL | 0.698 ± 0.24
146 | LQNSDVFHADLQIISPTFCP | -0.826 ± 1.8
147 | LQYSKGYDRVRDPILHTVN | 0.389 ± 0.37
148 | LQYWEVYSSCRMRVGYYSAD | 1.67 ± 0.13
149 | LRCLANVDSIICNSV | -0.071 ± 0.9
150 | LRDRCTFG | -0.755 ± 0.5

Row | Substance | amyloid nucleation score
151 | LREGTFRLRQVTTFRGYRPW | 0.101 ± 0.37
152 | LREVGQNLVGMSV | inactive
153 | LRHFCGTFAAVTRKRVYPLS | -0.95 ± 2.7
154 | LRIARVYVYKIRAWSVVSGK | -1.35 ± 0.63
155 | LRIERMWVWVSA | 0.556 ± 0.65
156 | LRIHGSTLRISLW | 1.64 ± 0.28
157 | LRILVITYILCT | -0.331 ± 0.42
158 | LRIVS | -0.11 ± 0.4
159 | LRNAMVMSLYN | -0.423 ± 0.72
160 | LRNAVFVDPSCNYYVFILRL | 3.72 ± 0.15
161 | LRNIGCKY | 1.01 ± 0.64
162 | LRRLSIANLFIFAFSWRFYW | 1.03 ± 0.52
163 | LRRLTTVAGIVIAVTSEDDT | 0.595 ± 0.73
164 | LRSFIGRRS | 0.272 ± 0.32
165 | LRSIRVPP | -0.005 ± 0.32
166 | LRSSVSFGQLSRNPHAGSSH | -1.4 ± 1.4
167 | LRSTLPADRRGLICFSHI | 0.528 ± 1
168 | LRSVPRSRSF | 0.783 ± 0.41
169 | LRVKIHTIVIQWIANNGARL | 0.39 ± 0.74
170 | LRVYGGFLSMSCMRQRDGTV | 0.151 ± 0.39
171 | LRWFPEAFNGAERESLASNL | -0.102 ± 0.52
172 | LRYASEGSKFFVWNLTYLNR | -0.147 ± 1.2
173 | LSCLYDDCC | 1.05 ± 0.61
